The source of these data is patent US20250320291A1.

For the assay, the target named is biotinylated CD19 (UniProt P15391). Put plainly: yeast surface display of the scFv, flow cytometry titration of biotinylated CD19, 1:1 equilibrium binding fit, mean±SD of 3 trials. For orientation: Flow cytometry measures light scatter and fluorescence of single cells or particles in a stream.
Sequence of UniProt P15391 (P15391 20-291 limits assumed): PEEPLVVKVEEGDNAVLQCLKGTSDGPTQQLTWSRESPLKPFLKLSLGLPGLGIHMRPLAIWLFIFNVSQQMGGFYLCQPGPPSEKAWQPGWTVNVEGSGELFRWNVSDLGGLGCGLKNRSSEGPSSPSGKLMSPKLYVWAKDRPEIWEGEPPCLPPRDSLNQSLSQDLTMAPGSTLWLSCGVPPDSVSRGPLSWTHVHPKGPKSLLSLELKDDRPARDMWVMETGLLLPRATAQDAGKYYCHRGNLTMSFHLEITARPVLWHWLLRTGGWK

By Kd is commonly meant the free concentration of one partner at which half of the binding sites on the other are occupied at equilibrium, for simple one-to-one binding. Higher therefore signals a looser complex. For the substance FMC63 parental murine anti-CD19 scFv, the Kd turned out to be 4.8 nM.
